Laboratory results reported in the Human Domainome abundance scans (Beltran et al. 2025).

B1: RUN and FYVE domain-containing protein 1, residues 639 to 698; numbered along this chain, Q96T51 (parent)
chain: WLKDDEATHCRQCEKEFSISRRKHHCRNCGHIFCNTCSSNELALPSYPKPVRVCDSCHTL

Variants of: B1
Assay: abundance fitness (aPCA) (normalised: wild type 0, dead -1); higher = more abundant; growth selection in yeast, the domain comes from the species named
Conditions: Homo sapiens

Abundance fitness of substitutions, site by site:
D5: R -0.57, I -0.341, A -0.21, P -0.537, L -0.547, G -0.388, N 0.004, H -0.426
A7: G -0.09, T 0.014, N -0.204
K49: F -0.342, I -0.32, A -0.327
P50: R -0.185, I -0.807, F -0.211, K 0.023, D -0.295, W -0.549
C34: I -0.71, L -0.708, M -0.398, A -0.659
C10: G -0.849, T -0.711, N -0.837, L -0.74, Q -0.678, E -0.687, F -0.776, Y -0.72, I -0.636, R -0.843
C26: M -0.76, V -0.913, I -0.866, E -0.655, N -0.418, P -0.508, H -0.628, F -0.89, A -0.694
C57: L -0.475, Q -0.409, D -0.619, P -0.697, G -0.53, Y -0.828, H -0.957, R -0.673, T -0.467
H24: M -0.148, F -0.351, C -0.135, D -0.251, A -0.266, P -0.97
E6: H -0.185, P -0.236, W -0.388, A -0.085, T -0.014
A43: Y -0.366, K -0.071, N 0.034, Q -0.008, M 0.021, C -0.128
T8: C -0.325, H 0.025, A -0.204, K -0.026, Y -0.349, M 0.022
C13: W -0.82, R -0.802, H -0.975, T -0.83, N -0.712
H25: Y 0.097, N -0.311, R 0.151, C -0.169
